From paper PMC7933254

Target: RhoA (blot label: Myc (RhoA); legend: RhoA-GFP)
Assay: co-immunoprecipitation (IP: Myc (RhoA)) with densitometry
Conditions: MN-1 cells, mean ± SEM, parent: est. 1.0, read off a plot

ratio to parent (R237L TRPV4-FLAG alone, no TRPV4-GFP co-expressed (lane 4), n = 5): 0.05 | ratio to parent (R237L TRPV4-FLAG co-expressed with WT TRPV4-GFP (lane 5), n = 4): 0.04
Substance: TRPV4-FLAG (wild type), expressed in MN-1 cells (from UniProt Q9HBA0) R237L
